From the DeepSol protein solubility set

Assay: soluble on expression in E. coli; label from the status in PepcDB or PDB records

Row | Sequence | soluble on expression in E. coli
1 | MGSDKIHHHHHHMEGKVDVLLTWLKKSDKFYIAPNISICESPETGRGIVLSHGSIRKNDIIVSVPSSKQLNFHTILYHISKFNKELNIPGITIDRKPINYEDNIIEAENKAWADPRYGLYSELSKEFLLSLSSFQLVSFYILVENFLLPKWTHNEIYSDWKPFFDVWPSMEELRSIPAIWNCDPNSRYHSLIEYLPAASRKHMARISGLVREDWETISEVVLKWNEIYGSLSCTKNSDKFTSDELFSLFVHVYFIINSRCLYAKIPLKIEDSPSNFTLVPYVDFMNHICESDLHCYPQLSPQLRSEGENIIGIGQFTIRCGDHLYDNINEELFLNYGAHSNDFLLNEYGFVVDGNKWNYLDISDEIIELIDDDKKEVKTFLLEHDYWGDYTINETDISYRIFVALNYYVTRDERRVRKFIEGYISEDYFKPKISSVLKELLVSLTAKYTKTLSELTEKVSNLENNLCLQNLITIYKGYIKILTQHLQDLQS | not soluble
2 | VDLGSKSSNSTCRLNVTELASIHPGETWTLHGMCISICYYENVTEDEIIGVAFTWQHNESVVDLWLYQNDTVIRNFSDITTNILQDGLKMRTVPVTKLYTSRMVTNLTVGRYDCLRCENGTTKIIERLYVRLGSLYPRPPGSGLAKHPSVSADEELSA | soluble
3 | GPGSMPRCTTLPLSSFPSLLTFMTVCAASSSPPLPRFRVAHLCRRGKDCLALARSLSLPIVEGAEGGGGRCGCSEWRREGAGERCSVFYLSLPASNFMCINFASPLHLRSPGARHIDVQDVPMERNTLQVVASAVNAEALSGAEDHACHASPVHRVYRLRDACTTLQLILLAYKYRRCSAHSMTVAMFVEACAYDLVQGVRVLESAPLSSSPGHDSSGDAIATLEAPWFYIGSEAGGDVRVYLLLPTYADYFLDYTMHWARVAYSEMARQYVGHSLIAKLQTVGGGWASLHRADKSLACALQLHAVAQAVFDEDVVRKCRLFIGWAHLWNSEPAKALEVFYAELAAARRHGDTIQERRCLHAIQNAEHNPRLAPGGAHTGHYQLVNLWWRALA | soluble
4 | MNTHHHIVISIGSNYAAETNIPAAMRLLRDSYPTIRFSKPIENAPIDFPYPSGLFTNLTAHFYSSENREEVGRKLKGIELQLGRTYTKPFDGRVAIDLDLIVWNNTILKNVDYSRPYIQSGLQELRINIQTQLNMTKESRSETFFHNKPNNWNCAQAVQKGFQDLTGMTDEAIEEEYRSKGGGRAEGGLCGALYSANRILESKGLQPVSQEFQAHAGGITCRELKGELKFPCNNCVRLAEELVEQRLSESQTID | not soluble
5 | MSLSEELSFSAMVKAELALLTPELPCCRRMELAGLVRALGRLELSGRGRFALTLSTDSAPVSRKVIRLLKSVSPVRYEVMVMRRRKLRKNLVYRVHIPHQPGVAELLQLAGFIDEAGRPADWVEPPELANDHCRRAFLRGTFLGSGWVAGPEKQHHLEITTTATEAADALGQMLFRGGIAARMVARRESLVLYIKEADQIIRFLGLVGAHQALLRYEEVRVIKEMKNQVNRQVNAEVANMTKQADAAARQVEAIKRLEAAGALERVSPPLRELAGLRLAYPDASLKELGELCRPPVSKSGAAHRMRQLMALAESLEEGHHHHHH | soluble
6 | PTARRDIRFAWSGDTAGQGWGIDDEGMRTYATMAQHQPDFFIHSGDTIYADGPMKDEVEKDGAVIWKNTTLIDEKRKVAETLAEFRGQWKYNLMDEHVQAMNALCPTFFQWDDHEVVNNWSDAKDLSADDRYTEKSVHVLQSRAARAFHEMTPLRITPAEPGRVYRKISYGPMLDVFFLDLRSYRGPNGASMEDEITDQSRILGAEQLAWIKRELAASTATWKVIASDMPIGLIVWDNWKEKAGAEAISNGDHGPAKGRELEIADLLRFIKSAGVRNTVWFTADVHYTAAHHYSPERAQFQDFDPFWEFVSGPLHAGTFGPNDLDRTFGPEVKFVKAPTPEQGVNLPPSMGLQFFGLVDIDAASQQMKVRLMDRGNTELWSVTLDPVLSAI | not soluble
7 | METCDLLAFGAHPDDVEIGMGGTIAKYVRRGYRIVICDLTQAELSSNGTVDERQREAAEAARRLGVSERFNLGLPDRGLYVEEEAIRQIAAVIRRCRPRLVFAPYWEDRHPDHGRCARLVEEAVFSAGIRRYGAGELGDAHRVRAVYYYMINAFCRPHFLIDISETIDDKLDSLRAYESQFQKRPGSVDTPLTNGYIEMIESRERWFGQQIGAAYAEGFLTKTPIHLSNLFEEER | not soluble
8 | MQQQKTVQPEAKQKVEVGVLAIRGHLYAEQRWQPTIDWLNQQISDVHFELHPLNLDEMGEAVKFQTMDFILTNPGQAVRLGRQYALSWMATLTGRAPQNSNYSIGSALVVRANSPYQTLKDVSGFPVAAVSEKAFGGYLTLRYQIVEMGLDPNDFFADVRYLGFPIDANLYQLRDGNVEAAVVPACLLEQMQNEGLLQHGDFRVLNQQPNEHSSCAVSTPLYPNWSFAKTERGSSLLAKKIAQVLLAMPPEHP | not soluble
9 | MGSDKIHHHHHHMSDTHIGAKSLTIEEREQDYYDTFQEAVEIAIDEKVDFIIHSGDLFDTWIPGNRSMKVFRDAMMKLNDRQIPVFYVFGDHDRPRRNSESAAGIFDFLGLHILGRDEFAGIEREFSGMKVFIGGISNMKGYLRNQLKEEYKKAESASTGYKNSILISHQALDPIFIPEQCEAKVNDLPMNYSYIAMGHLHDFVEREIGPLLSYPGSTELKSDREINGLLKMGKGINVIDLDNGVASLHRVKLKKVRYQFKVESDPENYLEEIKSILDKYANAIGEKKPIVNLIINGQISMEEVYEDLKKINGAIFNRPQILKIVDMPNVPSGSSELREYFQAFLKDQKLTDLAMKVFQHTADGDKEAIIREAAGEAIDN | not soluble
10 | MSLLPSQSPAIFTVSRLNQTVRLLLEHEMGQVWISGEISNFTQPASGHWYFTLKDDTAQVRCAMFRNSSRRVTFRPQHGQQVLVRANITLYEPRGDYQIIVESMQPAGEGLLQQKYEQLKAKLQAEGLFDQQYKKPLPSPAHCVGVITSKTGAALHDILHVLKRRDPSLPVIIYPAAVQGDDAPGQIVRAIELANQRNECDVLIVGRGGGSLEDLWSFNDERVARAIFTSRIPVVSAVGHETDVTIADFVADLRAPTPSAAAEVVSRNQQELLRQVQSTRQRLEMAMDYYLANRTRRFTQIHHRLQQQHPQLRLARQQTMLERLQKRMSFALENQLKRTGQQQQRLTQRLNQQNPQPKIHRAQTRIQQLEYRLAETLRAQLSATRERFGNAVTHLEAVSPLSTLARGYSVTTATDGNVLKKVKQVKAGEMLTTRLEDGWIESEVKNIQPVKKSRKKVHEGHHHHHH | not soluble
11 | MKQYFYERECQNPELREQSLLERLPSFITYAKQECQHYGQILQHIDADKITSRELLAQLPITRKSDLMKLQAKNSPLGGLNANKANIGRIFQSPGPIYDPENTSDDWWRLGQAFYAAGFRAGDIVQNCLSYHLTPGGFILDSGARACGCVVIPAGPGQTEQQLDIIEHLKPQGYSGTPSFLKILLDKAKAENRDISSVTKALVTGEALPKGLRAEFDAAGINTLQAYASADVGLIGFESKSDDGFIIAEDLLVEIVRPGTLEPVADGEIGEVVVTSFNVDYPLIRFATGDLSAVKSSESACGRTNMCIKGWLGRADQTTKIKGMFVHAEQIEQVRQAYPHIAKMRLSVTQVNYNDQMNLQCELDSSGYSEADIAGAIENISSSLKKTTKLNGAVELVAVGTLADDGKVIDDLRPIG | not soluble
12 | MGSDKIHHHHHHMEISFTRVALLAAALFFVGCDQKPQPAKTHATEVTVLEGKTMGTFWRASIPGIDAKRSAELKEKIQTQLDADDQLLSTYKKDSALMRFNDSQSLSPWPVSEAMADIVTTSLRIGAKTDGAMDITVGPLVNLWGFGPEQQPVQIPSQEQIDAMKAKTGLQHLTVINQSHQQYLQKDLPDLYVDLSTVGEGYAADHLARLMEQEGISRYLVSVGGALNSRGMNGEGLPWRVAIQKPTDKENAVQAVVDINGHGISTSGSYRNYYELDGKRLSHVIDPQTGRPIEHNLVSVTVIAPTALEADAWDTGLMVLGPEKAKEVVRREGLAVYMITKEGDSFKTWMSPQFKSFLVSEKN | not soluble
13 | MSLRDKQKIKTKLIPEKDEGEGKYRIGLYIRDSAAGIGTMTFYEPKTKKYGALGHVISDMDTKKPIVVENGEIVKSTVTSIEKGTGGNPGEKLARFSSERKTIGDINRNSPFGIFGTLHQPIQNNISDQALPVAFSTEVKKGPAEILTVIDDDKVEKFDIEIVSTTPQKFPATKGMVLKITDPRLLKETGGIVQGMSGSPIIQNGKVIGAVTHVFVNDPTSGYGVHIEWMLSEAGIDIYGKEKASEGHHHHHH | soluble
